In the nanobody polyreactivity screen of Harvey et al. (2022):

Assay: yeast display, Sf9 membrane polyspecificity reagent, FACS + sequencing; frameworks hold sequencing errors
Summary of the method: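 Nanobodies from a synthetic yeast display library (Saccharomyces cerevisiae BJ5465), induced 36–48 hours with galactose, were stained 1 hour at 4 °C with 10% biotinylated, detergent-solubilized Sf9 membrane reagent, enriched on streptavidin microbeads, then FACS-sorted. Anti-HA (expression) and streptavidin (reagent binding) fluorescence set low and high (top ~1%) gates. Polyreactivity labels come from the gate of origin. Genes were colony-PCR amplified, MiSeq 2 × 250 sequenced and filtered by CDR length.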

Sequence	polyreactivity (PSR sort gate)
QVQRVESGGGLVQAGGSLRLSCAASGRISSWNAMGWYRQAPGKERELVATISRRGGSTYYADSVKGRFTISRDNAKNTVYFQMNSLKQEDTAVYYCAKSSWTYGAYNYWGQGTQVTVSS	high polyreactivity
QVQRVESGGGLVQAGGSLRLSCAASGRTFDGYAMGWYRQAPGKDRELVAAISKRGGSTYYADSVKGRFTISRDNAKNTVYLQMHSLKPEDTAVYYCNTRYFGDQTWVGGDSWGQGTQVTVSS	high polyreactivity
QVQRVESGGGLVQAGGSLRLSCAASGRTFRSYAMGWYRQAPGKERQFVAAISRSGASTRYADSVKGRFTISRDNAKNTVYFQMNSLKPEDTAVYYCAAVWPDVRGYDYWGQGTQVTVSS	high polyreactivity
QVQRVESGGGLVQAGGSLRLSCAASGSIFPIYAMGWYRQAPGKERELVAGITWSGGSTYYADSVKGRFTISRDNAKNTVYLQMNSLKPEDTAVYYCAAERWHPYDYWGQGTQVTVSS	low polyreactivity
QVQRVESGGGLVQAGGSLRLSCAASGSIFPYYAMGWYRQAPGKETELVATITYRGGSTNYADSVKGRFTISRDNAKNTVYLQMNSLKPEDTAVYSCAAYGYVLASPYPYSFVKLGYCGQGTQVTVSS	low polyreactivity
QVQRVESGGGLVQAGGSLRLSCAASGSIFYSYAMGWYRQAPGKARELVATISWSGGRTNYADSVQGRFTISRDNAKNTVYLQMNSLKPEDTAVYYCAADIPPWGGDYWGQGTQVTVSS	low polyreactivity
QVQRVESGGGLVQAGGSLRLSCAASGSIRGYAMGWYRQAPVKERELVAAISWRGGSTYYADSVKGRFTISRDNAKNTVYLQMNSLKPEDTAVYYCATKGYPHVSTWMDSWGQGTQVTVSS	low polyreactivity
QVQRVESGGGLVQAGGSLRLSCAASGSTFPPYGMGWSRQAPGKERELVAAITWRGGRTYYADSVKGRFTISRDNAKNTVYLQMNSLKPEDTAVYYCAASYGPRTGYATYRYASSRYNYWGQGTQVTVSS	high polyreactivity
QVQRVESGGGLVQAGGSLRLSCAASGSTFVNYVMGLYRQAPGKERELVAAISWSGGRTYYADSMKGRFTISRDNAKNTVYLQMNSLKPEDTAVYYCNAVYAGFLRVRYDYWGQGTQVTVSS	high polyreactivity
QVQRVESGGGLVQAGGSLRLSCAASGSTFYTNAMGWYRQAPGKERELVASITGGGSTYYADSVKGRFTISRDNAKNTVYLQMNSLKPEDTAVYYCAADNFGGGWEFDSWGQGTQVTVSS	low polyreactivity
QVQRVESGGGLVQAGGSLRLSCAASGSTLRYYAMGWYRQAPGKERELVAGIRYRGGSTSYADSVKGRFTISRDNAKNTVYLQMNSLKPEDTAVYYCATGIYRARTSSFRMGYWGQGTQVTVSS	low polyreactivity
QVQRVESGGGLVQAGGSLRLSCAASGTIFYHNAMGWYRQAPGIERELVAAITGSGGSTYYADSVKGRFTISRDNAKNTVYLQMNSLKPEDTAVYYCAADGYTKWRISWGYDYWGQGTQVTVCS	low polyreactivity
QVQRVESGGGLVQAGGSLRLSCAGCGRIFHYYAMGWYRQAPGKEMELVAAITSSGGSTYYADSVKGRFTISRDHPKNTVYLQMNSLKPEDTAVYYCAAGLIVGRFLRYDYWGQGTQVTVSS	high polyreactivity
QVQRVESGGGLVQAGGSLRLSSAASGSTFQEYAMGWYSQAPGKERELVASIRWSGGRTYYADSVKGRFTISRDQAKNTVELQMKSLKPEDTAVYYCNKDYYITLHESDGNGGEMDYWGQGTQVTVSS	low polyreactivity
QVQRVESGGGLVQAGVSLRLSCAASGITFVPYAMGWYRQAPGKERELVAAISSSGGSTYYADSVKGRFTISRDNAKNTVYLQMNSLKPEDTAVYFCNVPTHSYIGMDYWGQGTQVTVSS	low polyreactivity
QVQRVESGGGLVQEAGSLRLSCAASGSILGINVMGWYRHDHGKQRDLVAAISRSGGTTYYADSVKGRFTISRDNGKNTVYLQMNSLKPEDTAVYSCAVYNRPYKEYGYNYCGQGTQVTVSS	high polyreactivity
QVQRVESGRGLVQAGGRLRLSCAASGFIFDRNVMGLYRQAPGNERELVAAISSSGGSTYYADSVKGRFTISRDNAKNTVYLQMNSLKPEDTAVYYCNRLAYRNMDYWGQGTQVTVSS	high polyreactivity
QVQRVESGRGLVQAGGSLRLRCAASGNIFPWSAMGWSRQAPGKERELVAAITSGGGSTYYGDSVKGRFTISRDNAKNTVYLQMNRLKPEDTAVYYCNAESAFVSYYSEDYDYWGQGTQVTVSS	low polyreactivity
QVQRVESGVGLVQAGGSLRLRCAASGSIFQSYAMGWYRHAPGKERELVAAITERGGSTYYADSVKGRFTISRDNAKNTVYLQMNSLKPEDTAVYYCAAKAVGLGKSWRGDDYWGQRTQVTVSS	low polyreactivity
QVQRVESRGGLVQAGGSLRLSCAASGSTFAVYALGWYRQAPGKERELVAAISQSGGSTNYADSVKGRFTISRDNAKNTVYLQMNSLKPEDTAVYYCNVDVSRSWAQPYTYDYWGQGTQVTVSS	low polyreactivity
QVQRVESWGGLVQAGGSLRLSCAASGFTFSDNAMGWYRQAPGKERELVAAISRRGGSTYYADSVKGRFTISRDNAKNTVYLQMNSLKPEVTAVYYCAAVRASSKVHTRTYDYWGQGTQVTVSS	high polyreactivity
QVQRVETGGGLVQAGGSLRLSSAASGSTLPGNTMGWYRQAPGKERELVAAISKSGGTTYYADSVKGRFTISRDNAKNTVYLQMNCLKPEDTAVYYCAAKPWVWVYARYGKHPSYDYWGQGTQVTVSS	high polyreactivity

Sequence	polyreactivity (PSR sort gate)
QVQRVETGGVLVQAGGSLRLSCAASGRIFINDMGWYRQAHGKEMELVAAIRSDGSTNYADSVKGRFTFSRDTAKNTVYLQMNSLKPEDTAVYYCNVDGYYLFVRGYEYWGQGTQVTVSS	low polyreactivity
QVQVVESGGGIVQAGGSHRLSCAAYGSIFLPYAMGWYRQAPGKDRELVAAITRGGDSTYADSVKGRFTISRDNAMYTVDLQMNSLKRDDTAVFYCAAGAGFESDYWGQGTQVTVAS	low polyreactivity
QVQVVESGGGLVQAGGRLRLSCAASGRIFYWYAMGWSRQAPGKERELVADINHGDTSTYYADSVKGRFTISRDKAKNTVYLQMNSLKPEDTAVYYCNVRSYVYSRWYQSTWGYYYWGQGTQVTVSS	high polyreactivity
QVQVVESGGGLVQAGGSLLLICAASGRTFWPNAMGWYRAAPGKERELVAAINWGGGSTYYADSVKVRFTISRDNAKNAVYLQKNSLKPEDTAVYYCAKSLVPWWYKVEYDYWGQGTQVTVSS	low polyreactivity
QVQVVESGGGLVQAGGSLLLSCAASGSTFEYNAMGWYRQAPGKERELVASSTNYADSVKGRFTISRDNAKNTVYLQMNSLKPEDTAVYYCARELGVNRKHDYWGQGTQVTVSS	low polyreactivity
QVQVVESGGGLVQAGGSLRLSCAASGFIFFTYAKGWYRPAPGKERELVADISSRGGSTYYADSVKGRFTISRDNAKNTVYLQMNSLKPEDTAVYYCARTRFWLRYRLFDYWGQGTQVTVSS	low polyreactivity
QVQVVESGGGLVQAGGSLRLSCAASGFIFLRYDMGWYRQAPGKERELVAAINGNGGSTYYADSVKGRFTISRDNAKNTFYLQMNSLKPEDTAVYYCNARRRTYARNYGYWGHGTQVTVSS	high polyreactivity
QVQVVESGGGLVQAGGSLRLSCAASGRIFSHNAMGWYRQAPGNEWELVAGISSGGGTTYADSVKGRFTLSRDNAKNTVYLQMNSLKPEDTAVYYCNKQDQPVGRSGYPYGYDYWGQGTQVTVSS	low polyreactivity
QVQVVESGGGLVQAGGSLRLSCAASGRTFDWYLMGWYRQAPGKERELVASIRGTGSTYYADSVKGRFTISRDNAKNTVYLQMNSLKAEDTAVYYCAARPGFLYSKYNYWGQGTQVTVSS	high polyreactivity
QVQVVESGGGLVQAGGSLRLSCAASGRTYRSNAMGWYRQAPGKERELVAAIRTSGGSTYYADSVKGRFTISRDNAKNTVYLQMNSLKPEDTAVYYCNAELRDLEFDYWGQGTQVTVSS	low polyreactivity
QVQVVESGGGLVQAGGSLRLSCAASGSICHVNAMGWYRQAPGKERELVADISKRGASTYYADSVKGRFTISRDNAKNTVYLQMNSLKPEDTAVYYCAARVVTPRRQWYTYDYWGQGTQVSVSS	high polyreactivity
QVQVVESGGGLVQAGGSLRLSCAASGSIFATYAMGWYRQAPGKERELVAAITSSDGSTNYADSVKGRFTISRDNAKNTVYLQMNSLKPEDTAVYYCATDAPDRTDSDSGFDAGYDYWGQGTQVTLSS	low polyreactivity
QVQVVESGGGLVQAGGSLRLSCAASGSISSWYALGWYRPAAGYERELVADISSGVNTYYADSVKGRFTISRDNAKNTVYLQMNSLKTEDTAVYYCNAESLTFADPFYNYTYDYWGQGTQVTVSS	low polyreactivity
QVQVVESGGGLVQAGGSLRLSCAASGSTFKNYAMGWYRQAPGKERELVAAIHGRGGSTYYADSVKGRFTISRDNAKNTVYLQMNSLKPEDTAVYYCAASRVHSYNPGYPRYYYWGQGTQVNVSS	high polyreactivity
QVQVVESGGGLVQAGGSLRLSCAAYGRTISAYAMGWYRQAPVKERELVARITRYGGPTYYADSVKGRFTISRDYAKYTDYLQMNSLKAEVTAVDYCAARKYHLRTAYVYWGQGTEVTVSS	low polyreactivity
QVQVVESGGGLVQAGGSLRLSCAGSGSIFRVYAMGWYRQAPGKVREWVASISRRGGSTYYADSVKGRFTISRDNAKNTVYLQMNSLKPEDTAVDYCAAEFVIGGHGYDYWGQGTQVTVSS	high polyreactivity
QVQVVESGGGLVQAGGSLRLSCGASGSTFQGNAMGWYRPAPGKDRALDAAISRSGGSTYADSVKGRFTISRDNAKNTVYLQMNSLKPADTAVYYCAADALYWIGRMDYWGQGTQVTVSS	low polyreactivity
QVQVVESGGGLVQAVGSLRLSCAASGSTLSDNAMGWYRQAPGKERELFAAISESGGSTYYADSVKGRFTISRDNAKNTVYLQMNSQKPEDTAVSYCNAVYLSGPFHVSHDYWGQGTQVTVSA	low polyreactivity
QVQVVESGGGLVQEVGSLRLSCDASGRSFHHNVMGWYRQAPGKERELVAAISQSGCSTYYADSVKGRFTISRDNAKNTLYLLINSLKPEDSAVYYCNAGAAGRRYNYWGQGTQVTVSS	low polyreactivity
QVQVVESGGGLVQPGGSLRLSCAASGFIFFRYDMGWYRQAPGKERELVAAITDDGSTYADSVKGRFTISRDNAKNNVYLQMNSLKPEDTAVYYCNVQSKSSYWWYGYDYWGQGTQVTVSS	low polyreactivity
QVRHVESGGGLVQAGGSLRLSCAASGGIFTTYAVGWYREAPGKEWELVARINSRGGRTYYADSVKGRFTISRDNAKYTVYLQMISLKPEDTGVYYCAVRNPRYFNEYDYWGQGTQVTVSS	low polyreactivity
